Test results from PMC11090907 (2024).
Substitutions are numbered along the chain they refer to. Numbers in names are those of the source.

B1: sdAb ALFA WT-TEV-His E58S (protein)
chain: EVQLQESGGGLVQPGGSLRLSCTASGVTISALNAMAMGWYRQAPGERRVMVAAVSSRGNAMYRESVQGRFTVTRDFTNKMVSLQMDNLKPEDTAVYYCHVLEDRVDSFHDYWGQGTQVTVSS
B2: sdAb ALFA WT-TEV-His S57A; E58S (protein)
chain: B1 chain with S55A
B3: sdAb ALFA WT-TEV-His S57A; E58S; R59G; R65D (protein)
chain: B1 chain with S55A, R57G, R63D
B4: sdAb ALFA WT-TEV-His S57A; E58S; R59G (protein)
chain: B1 chain with S55A, R57G
B5: sdAb ALFA WT-TEV-His S57A; E58S; R59G; R65D; D112V (protein)
chain: B1 chain with S55A, R57G, R63D, D110V
B6: sdAb ALFA WT-TEV-His (VHH)
VHH: B1 chain with S56E
B7: GFP2-L5-sdAbALFA WT S57A; E58S; R59G; R65D; D112V (protein)
chain: B1 chain with S55A, R57G, R63D, D110V
B8: GFP2-L5-sdAbALFA WT S57A; E58S; R59G; R65D (protein)
chain: B1 chain with S55A, R57G, R63D
B9: GFP2-L5-sdAbALFA WT S57A; E58S (protein)
chain: B1 chain with S55A
B10: GFP2-L5-sdAbALFA WT E58S (protein)
chain: B1 chain
B11: GFP2-L5-sdAbALFA WT S57A; E58S; R59G (protein)
chain: B1 chain with S55A, R57G
B12: sdAb ALFA SERR-TEV-His (VHH)
VHH: B1 chain with S55A, R57G, R63D
B13: sdAb ALFA SE-TEV-His (VHH)
VHH: B1 chain with S55A
B14: sdAb ALFA E-TEV-His (VHH)
VHH: B1 chain
B15: sdAb ALFA SER-TEV-His (VHH)
VHH: B1 chain with S55A, R57G

Biological target: T1, ALFA tag-human Fc
T1 chain: SRLEEELRRRLTE
Test: SPR
Conditions: chain shown with the change; room temperature; parent: 5.0 ± 0.07 pM

Point of comparison: B3, Kd 1130 nM. Against it:
- B1 — 1400-fold lower, 0.8 nM
- B2 — 660-fold lower, 1.7 nM
- B4 — 470-fold lower, 2.4 nM

Same assay, conditions: chain shown with the change; sdAb at 50 nM; parent: est. 61; read off a plot

Point of comparison: B5, response (Response Unit) 0. Against it:
- B3 — higher, 3.8
- B4 — higher, 57

Biological target: T2, ALFA tag-human Fc
T2 chain: SRLEEELRRRLTE
Test: SPR
Conditions: not given

With B6 the Kd was 0.005 nM.

Biological target: T3, RLuc8-L5-ALFA-tag
T3 chain: SRLEEELRRRLTE
Test: BRET donor saturation assay
Conditions: chain shown with the change; HEK293T cells; 37°C; Acceptor/Donor ratio 20; parent: est. 26; read off a plot

Point of comparison: B7, response 2 BRET ratio. Against it:
- B8 — higher, 9.5 BRET ratio

Same assay, conditions: chain shown with the change; HEK293T cells; 37°C; parent: 1.4 ± 0.09

Point of comparison: B11, other: BRET50 5.2. Against it:
- B7 — higher, 12.4
- B9 — higher, 6.2
- B8 — higher, 9.3
- B10 — lower, 2.2

Same assay, conditions: chain shown with the change; HEK293T cells; 37°C; parent: 28.4 ± 0.37

Point of comparison: B7, other: BRETmax 3.3. Against it:
- B9 — higher, 26.7
- B8 — higher, 14
- B10 — higher, 28.1
- B11 — higher, 26.4

Biological target: T2, ALFA tag-human Fc
Test: SPR
Conditions: not given
Remark: another data set of the same source

Point of comparison: B13, koff 0.0073 s⁻¹. Against it:
- B6 — 270-fold lower, 2.7e-05 s⁻¹
- B12 — 3.6-fold higher, 0.026 s⁻¹
- B14 — 1.9-fold lower, 0.0039 s⁻¹
- B15 — 1.5-fold higher, 0.011 s⁻¹
